B1: library; numbered along this chain (parent)
chain: MRKPRAAVGSGHRKQAASQEGRQKHAKNNSQAKPSACDGLARQPEEVVLQASVSSYHLFRDVAEVTAFRGSLLSWYDQEKRDLPWRRRAEDEMDLDRRAYAVWVSEVMLQQTQVATVINYYTGWMQKWPTLQDLASASLEEVNQLWAGLGYYSRGRRLQEGARKVVEELGGHMPRTAETLQQLLPGVGRYTAGAIASIAFGQATGVVDGNVARVLCRVRAIGADPSSTLVSQQLWGLAQQLVDPARPGDFNQAAMELGATVCTPQRPLCSQCPVESLCRARQRVEQEQLLASGSLSGSPDVEECAPNTGQCHLCLPPSEPWDQTLGVVNFPRKASRKPPREESSATCVLEQPGALGAQILLVQRPNSGLLAGLWEFPSVTWEPSEQLQRKALLQELQRWAGPLPATHLRHLGEVVHTFSHIKLTYQVYGLALEGQTPVTTVPPGARWLTQEEFHTAAVSTAMKKVFRVYQGQQPGTCMGSKRSQVSSPCSRKKPRMGQQVLDNFFRSHISTDAHSLNSAAQ

Variants of: B1
Experiment: 8OG:A repair function score (normalized; synonymous = 0, nonsense = -1) (normalized log-likelihood score); higher = more repair activity (WT-like)
Conditions: with 8OG:A DNA repair reporter (GFP) in HEK-293 MUTYH KO cells
Protocol: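 Saturation mutagenesis (NNN codon scan) of the MUTYH cDNA (521-aa nuclear isoform NM_001048174.1 / NP_001041639), stably expressed under doxycycline induction in HEK-293 MUTYH knockout cells. Cells were co-transfected with an 8OG:A-bearing GFP repair reporter plus mCherry and sorted 72 h later into GFP+ and GFP− bins, three replicates per tile. The Rosace log2 enrichment (GFP+ vs GFP−) was converted per tile to a normalized function score with synonymous variants centered at 0 and nonsense variants (codons 1-471) at -1; low-abundance variants were removed.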

Variant	8OG:A repair function score
MRKPRAAVGSGHRKQAASQEGRQKHAKNNSQAKPSACDGLARQPEEVVLQAMVSSYHLFRDVAEVTAFRGSLLSWYDQEKRDLPWRRRAEDEMDLDRRAYAVWVSEVMLQQTQVATVINYYTGWMQKWPTLQDLASASLEEVNQLWAGLGYYSRGRRLQEGARKVVEELGGHMPRTAETLQQLLPGVGRYTAGAIASIAFGQATGVVDGNVARVLCRVRAIGADPSSTLVSQQLWGLAQQLVDPARPGDFNQAAMELGATVCTPQRPLCSQCPVESLCRARQRVEQEQLLASGSLSGSPDVEECAPNTGQCHLCLPPSEPWDQTLGVVNFPRKASRKPPREESSATCVLEQPGALGAQILLVQRPNSGLLAGLWEFPSVTWEPSEQLQRKALLQELQRWAGPLPATHLRHLGEVVHTFSHIKLTYQVYGLALEGQTPVTTVPPGARWLTQEEFHTAAVSTAMKKVFRVYQGQQPGTCMGSKRSQVSSPCSRKKPRMGQQVLDNFFRSHISTDAHSLNSAAQ [S52M]	-0.00303
MRKPRAAVGSGHRKQAASQEGRQKHAKNNSQAKPSACDGLARQPEEVVLQADVSSYHLFRDVAEVTAFRGSLLSWYDQEKRDLPWRRRAEDEMDLDRRAYAVWVSEVMLQQTQVATVINYYTGWMQKWPTLQDLASASLEEVNQLWAGLGYYSRGRRLQEGARKVVEELGGHMPRTAETLQQLLPGVGRYTAGAIASIAFGQATGVVDGNVARVLCRVRAIGADPSSTLVSQQLWGLAQQLVDPARPGDFNQAAMELGATVCTPQRPLCSQCPVESLCRARQRVEQEQLLASGSLSGSPDVEECAPNTGQCHLCLPPSEPWDQTLGVVNFPRKASRKPPREESSATCVLEQPGALGAQILLVQRPNSGLLAGLWEFPSVTWEPSEQLQRKALLQELQRWAGPLPATHLRHLGEVVHTFSHIKLTYQVYGLALEGQTPVTTVPPGARWLTQEEFHTAAVSTAMKKVFRVYQGQQPGTCMGSKRSQVSSPCSRKKPRMGQQVLDNFFRSHISTDAHSLNSAAQ [S52D]	-0.0111
MRKPRAAVGSGHRKQAASQEGRQKHAKNNSQAKPSACDGLARQPEEVVLQAKVSSYHLFRDVAEVTAFRGSLLSWYDQEKRDLPWRRRAEDEMDLDRRAYAVWVSEVMLQQTQVATVINYYTGWMQKWPTLQDLASASLEEVNQLWAGLGYYSRGRRLQEGARKVVEELGGHMPRTAETLQQLLPGVGRYTAGAIASIAFGQATGVVDGNVARVLCRVRAIGADPSSTLVSQQLWGLAQQLVDPARPGDFNQAAMELGATVCTPQRPLCSQCPVESLCRARQRVEQEQLLASGSLSGSPDVEECAPNTGQCHLCLPPSEPWDQTLGVVNFPRKASRKPPREESSATCVLEQPGALGAQILLVQRPNSGLLAGLWEFPSVTWEPSEQLQRKALLQELQRWAGPLPATHLRHLGEVVHTFSHIKLTYQVYGLALEGQTPVTTVPPGARWLTQEEFHTAAVSTAMKKVFRVYQGQQPGTCMGSKRSQVSSPCSRKKPRMGQQVLDNFFRSHISTDAHSLNSAAQ [S52K]	0.0066
MRKPRAAVGSGHRKQAASQEGRQKHAKNNSQAKPSACDGLARQPEEVVLQAGVSSYHLFRDVAEVTAFRGSLLSWYDQEKRDLPWRRRAEDEMDLDRRAYAVWVSEVMLQQTQVATVINYYTGWMQKWPTLQDLASASLEEVNQLWAGLGYYSRGRRLQEGARKVVEELGGHMPRTAETLQQLLPGVGRYTAGAIASIAFGQATGVVDGNVARVLCRVRAIGADPSSTLVSQQLWGLAQQLVDPARPGDFNQAAMELGATVCTPQRPLCSQCPVESLCRARQRVEQEQLLASGSLSGSPDVEECAPNTGQCHLCLPPSEPWDQTLGVVNFPRKASRKPPREESSATCVLEQPGALGAQILLVQRPNSGLLAGLWEFPSVTWEPSEQLQRKALLQELQRWAGPLPATHLRHLGEVVHTFSHIKLTYQVYGLALEGQTPVTTVPPGARWLTQEEFHTAAVSTAMKKVFRVYQGQQPGTCMGSKRSQVSSPCSRKKPRMGQQVLDNFFRSHISTDAHSLNSAAQ [S52G]	-0.00057
MRKPRAAVGSGHRKQAASQEGRQKHAKNNSQAKPSACDGLARQPEEVVLQAFVSSYHLFRDVAEVTAFRGSLLSWYDQEKRDLPWRRRAEDEMDLDRRAYAVWVSEVMLQQTQVATVINYYTGWMQKWPTLQDLASASLEEVNQLWAGLGYYSRGRRLQEGARKVVEELGGHMPRTAETLQQLLPGVGRYTAGAIASIAFGQATGVVDGNVARVLCRVRAIGADPSSTLVSQQLWGLAQQLVDPARPGDFNQAAMELGATVCTPQRPLCSQCPVESLCRARQRVEQEQLLASGSLSGSPDVEECAPNTGQCHLCLPPSEPWDQTLGVVNFPRKASRKPPREESSATCVLEQPGALGAQILLVQRPNSGLLAGLWEFPSVTWEPSEQLQRKALLQELQRWAGPLPATHLRHLGEVVHTFSHIKLTYQVYGLALEGQTPVTTVPPGARWLTQEEFHTAAVSTAMKKVFRVYQGQQPGTCMGSKRSQVSSPCSRKKPRMGQQVLDNFFRSHISTDAHSLNSAAQ [S52F]	-0.0245
MRKPRAAVGSGHRKQAASQEGRQKHAKNNSQAKPSACDGLARQPEEVVLQACVSSYHLFRDVAEVTAFRGSLLSWYDQEKRDLPWRRRAEDEMDLDRRAYAVWVSEVMLQQTQVATVINYYTGWMQKWPTLQDLASASLEEVNQLWAGLGYYSRGRRLQEGARKVVEELGGHMPRTAETLQQLLPGVGRYTAGAIASIAFGQATGVVDGNVARVLCRVRAIGADPSSTLVSQQLWGLAQQLVDPARPGDFNQAAMELGATVCTPQRPLCSQCPVESLCRARQRVEQEQLLASGSLSGSPDVEECAPNTGQCHLCLPPSEPWDQTLGVVNFPRKASRKPPREESSATCVLEQPGALGAQILLVQRPNSGLLAGLWEFPSVTWEPSEQLQRKALLQELQRWAGPLPATHLRHLGEVVHTFSHIKLTYQVYGLALEGQTPVTTVPPGARWLTQEEFHTAAVSTAMKKVFRVYQGQQPGTCMGSKRSQVSSPCSRKKPRMGQQVLDNFFRSHISTDAHSLNSAAQ [S52C]	-0.0302
MRKPRAAVGSGHRKQAASQEGRQKHAKNNSQAKPSACDGLARQPEEVVLQANVSSYHLFRDVAEVTAFRGSLLSWYDQEKRDLPWRRRAEDEMDLDRRAYAVWVSEVMLQQTQVATVINYYTGWMQKWPTLQDLASASLEEVNQLWAGLGYYSRGRRLQEGARKVVEELGGHMPRTAETLQQLLPGVGRYTAGAIASIAFGQATGVVDGNVARVLCRVRAIGADPSSTLVSQQLWGLAQQLVDPARPGDFNQAAMELGATVCTPQRPLCSQCPVESLCRARQRVEQEQLLASGSLSGSPDVEECAPNTGQCHLCLPPSEPWDQTLGVVNFPRKASRKPPREESSATCVLEQPGALGAQILLVQRPNSGLLAGLWEFPSVTWEPSEQLQRKALLQELQRWAGPLPATHLRHLGEVVHTFSHIKLTYQVYGLALEGQTPVTTVPPGARWLTQEEFHTAAVSTAMKKVFRVYQGQQPGTCMGSKRSQVSSPCSRKKPRMGQQVLDNFFRSHISTDAHSLNSAAQ [S52N]	-0.0834
MRKPRAAVGSGHRKQAASQEGRQKHAKNNSQAKPSACDGLARQPEEVVLQAHVSSYHLFRDVAEVTAFRGSLLSWYDQEKRDLPWRRRAEDEMDLDRRAYAVWVSEVMLQQTQVATVINYYTGWMQKWPTLQDLASASLEEVNQLWAGLGYYSRGRRLQEGARKVVEELGGHMPRTAETLQQLLPGVGRYTAGAIASIAFGQATGVVDGNVARVLCRVRAIGADPSSTLVSQQLWGLAQQLVDPARPGDFNQAAMELGATVCTPQRPLCSQCPVESLCRARQRVEQEQLLASGSLSGSPDVEECAPNTGQCHLCLPPSEPWDQTLGVVNFPRKASRKPPREESSATCVLEQPGALGAQILLVQRPNSGLLAGLWEFPSVTWEPSEQLQRKALLQELQRWAGPLPATHLRHLGEVVHTFSHIKLTYQVYGLALEGQTPVTTVPPGARWLTQEEFHTAAVSTAMKKVFRVYQGQQPGTCMGSKRSQVSSPCSRKKPRMGQQVLDNFFRSHISTDAHSLNSAAQ [S52H]	-0.0255
MRKPRAAVGSGHRKQAASQEGRQKHAKNNSQAKPSACDGLARQPEEVVLQAPVSSYHLFRDVAEVTAFRGSLLSWYDQEKRDLPWRRRAEDEMDLDRRAYAVWVSEVMLQQTQVATVINYYTGWMQKWPTLQDLASASLEEVNQLWAGLGYYSRGRRLQEGARKVVEELGGHMPRTAETLQQLLPGVGRYTAGAIASIAFGQATGVVDGNVARVLCRVRAIGADPSSTLVSQQLWGLAQQLVDPARPGDFNQAAMELGATVCTPQRPLCSQCPVESLCRARQRVEQEQLLASGSLSGSPDVEECAPNTGQCHLCLPPSEPWDQTLGVVNFPRKASRKPPREESSATCVLEQPGALGAQILLVQRPNSGLLAGLWEFPSVTWEPSEQLQRKALLQELQRWAGPLPATHLRHLGEVVHTFSHIKLTYQVYGLALEGQTPVTTVPPGARWLTQEEFHTAAVSTAMKKVFRVYQGQQPGTCMGSKRSQVSSPCSRKKPRMGQQVLDNFFRSHISTDAHSLNSAAQ [S52P]	-0.0118
MRKPRAAVGSGHRKQAASQEGRQKHAKNNSQAKPSACDGLARQPEEVVLQAIVSSYHLFRDVAEVTAFRGSLLSWYDQEKRDLPWRRRAEDEMDLDRRAYAVWVSEVMLQQTQVATVINYYTGWMQKWPTLQDLASASLEEVNQLWAGLGYYSRGRRLQEGARKVVEELGGHMPRTAETLQQLLPGVGRYTAGAIASIAFGQATGVVDGNVARVLCRVRAIGADPSSTLVSQQLWGLAQQLVDPARPGDFNQAAMELGATVCTPQRPLCSQCPVESLCRARQRVEQEQLLASGSLSGSPDVEECAPNTGQCHLCLPPSEPWDQTLGVVNFPRKASRKPPREESSATCVLEQPGALGAQILLVQRPNSGLLAGLWEFPSVTWEPSEQLQRKALLQELQRWAGPLPATHLRHLGEVVHTFSHIKLTYQVYGLALEGQTPVTTVPPGARWLTQEEFHTAAVSTAMKKVFRVYQGQQPGTCMGSKRSQVSSPCSRKKPRMGQQVLDNFFRSHISTDAHSLNSAAQ [S52I]	-0.0155
MRKPRAAVGSGHRKQAASQEGRQKHAKNNSQAKPSACDGLARQPEEVVLQAEVSSYHLFRDVAEVTAFRGSLLSWYDQEKRDLPWRRRAEDEMDLDRRAYAVWVSEVMLQQTQVATVINYYTGWMQKWPTLQDLASASLEEVNQLWAGLGYYSRGRRLQEGARKVVEELGGHMPRTAETLQQLLPGVGRYTAGAIASIAFGQATGVVDGNVARVLCRVRAIGADPSSTLVSQQLWGLAQQLVDPARPGDFNQAAMELGATVCTPQRPLCSQCPVESLCRARQRVEQEQLLASGSLSGSPDVEECAPNTGQCHLCLPPSEPWDQTLGVVNFPRKASRKPPREESSATCVLEQPGALGAQILLVQRPNSGLLAGLWEFPSVTWEPSEQLQRKALLQELQRWAGPLPATHLRHLGEVVHTFSHIKLTYQVYGLALEGQTPVTTVPPGARWLTQEEFHTAAVSTAMKKVFRVYQGQQPGTCMGSKRSQVSSPCSRKKPRMGQQVLDNFFRSHISTDAHSLNSAAQ [S52E]	-0.00064
MRKPRAAVGSGHRKQAASQEGRQKHAKNNSQAKPSACDGLARQPEEVVLQALVSSYHLFRDVAEVTAFRGSLLSWYDQEKRDLPWRRRAEDEMDLDRRAYAVWVSEVMLQQTQVATVINYYTGWMQKWPTLQDLASASLEEVNQLWAGLGYYSRGRRLQEGARKVVEELGGHMPRTAETLQQLLPGVGRYTAGAIASIAFGQATGVVDGNVARVLCRVRAIGADPSSTLVSQQLWGLAQQLVDPARPGDFNQAAMELGATVCTPQRPLCSQCPVESLCRARQRVEQEQLLASGSLSGSPDVEECAPNTGQCHLCLPPSEPWDQTLGVVNFPRKASRKPPREESSATCVLEQPGALGAQILLVQRPNSGLLAGLWEFPSVTWEPSEQLQRKALLQELQRWAGPLPATHLRHLGEVVHTFSHIKLTYQVYGLALEGQTPVTTVPPGARWLTQEEFHTAAVSTAMKKVFRVYQGQQPGTCMGSKRSQVSSPCSRKKPRMGQQVLDNFFRSHISTDAHSLNSAAQ [S52L]	0.00142

Reference: the supplement of paper PMC11908140
